The term Kd denotes the concentration at which binding is half-saturated. By kon is commonly meant the rate constant with which the complex forms. A word on the koff: it is a measure of how fast the partners let go of each other.

Assay [1] deals with T1, FcγRIa extracellular domain with C-terminal His tag (human, UniProt P12314 16-292).
T1 construct: also called FcgRIa
Briefly: SPR (Biacore), FcgR as analyte. (Surface plasmon resonance follows binding to a sensor surface in real time, without labels.)

Assay [2] deals with T2, FcγRIIb extracellular domain with C-terminal His tag (human, UniProt P31994 43-217).
T2 construct: extracellular domain; also called FcgRIIb
T2 sequence (looked up): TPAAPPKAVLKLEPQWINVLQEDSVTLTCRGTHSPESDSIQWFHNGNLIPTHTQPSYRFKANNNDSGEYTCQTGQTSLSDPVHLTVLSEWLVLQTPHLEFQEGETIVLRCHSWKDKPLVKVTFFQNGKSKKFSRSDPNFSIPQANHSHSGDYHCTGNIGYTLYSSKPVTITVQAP
The assay can be described thus: SPR (Biacore), FcgR as analyte.

For assay [3], the target named is T2, FcγRIIb extracellular domain with …. Briefly: SPR (Biacore); KD of IL6R-B3/IL6R-L / KD of variant.
Assay [4] has as its target T3, Human IgA (recombinant, H (WT)-IgA1 / L (WT)) (human).
T3 construct: used as the antigen (analyte); also called hIgA
Briefly: SPR (Biacore T200), antibody on Protein A/G, hIgA analyte, 37C; pH 5.8, 3 µM Ca; 1:1 binding model. As to the method: (§1) The hIgA-binding activities (dissociation constant KD (M)) of the antibodies isolated in (1-3) were assessed using Biacore T200 (GE Healthcare). Measurements were performed using a 0.05% tween20, 20 mmol/L ACES, 150 mmol/L NaCl (pH 7.4 or pH 5.8) solution containing 3 μM or 1.2 mM CaCl₂, or a 0.05% tween20, 20 mmol/L ACES, 150 mmol/L NaCl (pH 8.0) solution containing 0.1 μM or 10 mM CaCl₂ as a running buffer.
(§2) An appropriate amount of recombinant Protein A/G (Thermo Scientific) was immobilized onto a Sensor chip CMS (GE Healthcare) by an amino coupling method, and the antibody was allowed to bind thereto. Then, an appropriate concentration of hIgA (described in (1-1)) was injected as an analyte and allowed to interact with the antibody on the sensor chip. The measurement was carried out at 37° C. After measurement, 10 mmol/L glycine-HCl (pH 1.5) was injected to regenerate the sensor chip. From the measurement result, the dissociation constant KD (M) was calculated by curve fitting analysis and equilibrium analysis using Biacore T200 Evaluation Software (GE Healthcare).

Assay [5] concerns the target T3, Human IgA (recombinant, H (WT)-IgA1 / L …). The assay can be described thus: SPR (Biacore T200), antibody on Protein A/G, hIgA analyte, 37C; pH 7.4, 3 µM Ca; 1:1 binding model. The protocol: as §1, §2
Assay [6] shares this target. Briefly: SPR (Biacore T200), antibody on Protein A/G, hIgA analyte, 37C; pH 8.0, 10 mM Ca; 1:1 binding model. As to the method: as §1, §2
Assay [7] shares this target. The assay can be described thus: SPR (Biacore T200), antibody on Protein A/G, hIgA analyte, 37C; pH 5.8, 1.2 mM Ca; 1:1 binding model. As to the method:
as §1, §2

The target is the same in assay [8]. Briefly: SPR (Biacore T200), antibody on Protein A/G, hIgA analyte, 37C; pH 7.4, 1.2 mM Ca; 1:1 binding model. As to the method: as §1, §2
For assay [9] the target is unchanged. The assay can be described thus: SPR (Biacore T200), antibody on Protein A/G, hIgA analyte, 37C; pH 8.0, 0.1 µM Ca; 1:1 binding model. The protocol: as §1, §2
The next assay has as its target T4, human IgA (hIgA) (human).
T4 construct: recombinant antigen
The assay can be described thus: SPR (Reference Example 3). As to the method: as §1, §2

In assay [10] the target is T3, Human IgA (recombinant, H (WT)-IgA1 / L …). Briefly: SPR (Biacore T200), antibody on Protein A/G, hIgA analyte, 37C; pH 5.8, 3 µM Ca; Steady State Affinity. As to the method: as §1, §2
The target is the same in assay [11]. The assay can be described thus: SPR (Biacore T200), antibody on Protein A/G, hIgA analyte, 37C; pH 7.4, 3 µM Ca; Steady State Affinity. As to the method: as §1, §2
For assay [12] the target is unchanged. The assay can be described thus: SPR (Biacore T200), antibody on Protein A/G, hIgA analyte, 37C; pH 5.8, 1.2 mM Ca; Steady State Affinity. As to the method: as §1, §2
For assay [13] the target is unchanged. The assay can be described thus: SPR (Biacore T200), antibody on Protein A/G, hIgA analyte, 37C; pH 7.4, 1.2 mM Ca; 1:1 binding model; pH 7.4, 1.2 mM Ca; 37 C; 1:1 binding model. As to the method: as §1, §2
A further assay has as its target T5, mouse FcγRI (mouse, UniProt P26151 25-297, limits assumed).
T5 construct: also called mFcγRI
T5 sequence (looked up): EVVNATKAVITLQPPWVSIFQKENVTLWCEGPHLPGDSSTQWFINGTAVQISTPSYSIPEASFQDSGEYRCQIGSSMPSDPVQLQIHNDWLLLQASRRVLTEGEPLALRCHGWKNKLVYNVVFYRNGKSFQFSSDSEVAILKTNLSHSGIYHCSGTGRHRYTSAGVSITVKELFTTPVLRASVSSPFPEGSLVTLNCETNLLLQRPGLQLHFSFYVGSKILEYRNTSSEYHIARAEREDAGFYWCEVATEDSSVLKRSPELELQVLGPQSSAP
Briefly: SPR.

The next assay deals with T6, mouse FcγRIV (mouse, UniProt A0A0B4J1G0 21-203).
T6 construct: also called mFcγRIV
T6 sequence: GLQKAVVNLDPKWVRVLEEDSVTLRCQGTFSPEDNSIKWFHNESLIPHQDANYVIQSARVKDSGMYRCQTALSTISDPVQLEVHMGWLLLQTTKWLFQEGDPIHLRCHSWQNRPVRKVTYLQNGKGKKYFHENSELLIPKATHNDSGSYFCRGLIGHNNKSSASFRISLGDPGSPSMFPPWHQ
Briefly: SPR.

The target in assay [14] is T7, human IgE (human).
T7 construct: recombinant antigen; its variable region is from an anti-human glypican 3 antibody; also called hIgE
Briefly: SPR Biacore T200, 37 C; pH dependency. An excerpt:
(§3) 1.2 mmol/1 CaCl₂/0.05% tween20, 20 mmol/l ACES, 150 mmol/l NaCl, pH 7.4 [0568] 1.2 mmol/1 CaCl₂/0.05% tween20, 20 mmol/l ACES, 150 mmol/l NaCl, pH 5.8 [0569] 3 μmol/l CaCl₂/0.05% tween20, 20 mmol/l ACES, 150 mmol/l NaCl, pH 5.8
(§4) A peptide produced by adding biotin to Lys present at the C terminus of a chemically synthesized human glypican 3 protein-derived sequence (SEQ ID NO: 12) (hereinafter written as “biotinylated GPC3 peptide”) added at an appropriate amount was immobilized onto Sensor chip SA (GE Healthcare) utilizing the affinity between streptavidin and biotin. An appropriate concentration of human IgE was injected and trapped with the biotinylated GPC3 peptide to immobilize human IgE onto the chip. […] Then, 10 mmol/L glycine-HCl (pH 1.5) was injected to regenerate the sensor chip. All of the assay for the interaction was performed at 37° C. Using Biacore T200 Evaluation Software (GE Healthcare), the assay results were analyzed by curve fitting to determine the binding rate constant ka (1/Ms) and dissociation rate constant kd (1/s). Dissociation constant KD (M) was calculated from the above constants.

For assay [15], the target named is T7, human IgE. Briefly: SPR Biacore T200, 37 C; pH/Ca dependency.
Source text: as §3, §4

For assay [16], the target named is T7, human IgE. The assay can be described thus: SPR Biacore T200, 37 C, hIgE on chip, antibody analyte; pH 5.8, 3 µM Ca.
Source text: as §3, §4

For assay [17], the target named is T7, human IgE. The assay can be described thus: SPR Biacore T200, 37 C, hIgE on chip, antibody analyte; pH 5.8, 1.2 mM Ca.
Source text: as §3, §4

Assay [18] has as its target T7, human IgE. The assay can be described thus: SPR Biacore T200, 37 C, hIgE on chip, antibody analyte; pH 7.4, 1.2 mM Ca.
Source text: as §3, §4

T3 sequence (VH, as listed by the source): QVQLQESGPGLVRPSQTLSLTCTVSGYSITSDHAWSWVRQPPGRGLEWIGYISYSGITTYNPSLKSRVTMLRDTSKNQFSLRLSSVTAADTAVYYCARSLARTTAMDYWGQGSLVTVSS
T7 sequence (heavy, as listed by the source, chain 1 of 2, other chains not shown): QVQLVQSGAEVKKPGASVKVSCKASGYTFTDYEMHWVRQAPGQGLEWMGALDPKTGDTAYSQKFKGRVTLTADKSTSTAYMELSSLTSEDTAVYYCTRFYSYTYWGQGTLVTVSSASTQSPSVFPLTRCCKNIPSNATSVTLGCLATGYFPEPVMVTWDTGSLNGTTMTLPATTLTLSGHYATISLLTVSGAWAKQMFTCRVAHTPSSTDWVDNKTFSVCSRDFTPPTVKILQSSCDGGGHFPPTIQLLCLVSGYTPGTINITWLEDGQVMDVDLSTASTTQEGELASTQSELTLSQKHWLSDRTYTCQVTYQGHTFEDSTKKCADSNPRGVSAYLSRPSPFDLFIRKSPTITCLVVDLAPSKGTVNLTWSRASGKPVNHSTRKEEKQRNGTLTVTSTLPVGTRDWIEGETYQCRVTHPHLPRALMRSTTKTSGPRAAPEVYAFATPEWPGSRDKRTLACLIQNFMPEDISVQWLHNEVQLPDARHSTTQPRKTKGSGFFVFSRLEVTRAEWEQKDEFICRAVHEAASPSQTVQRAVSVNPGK
T4 sequence (VH, as listed by the source): as the sequence (VH, as listed by the source) above
T1 sequence (P12314 16-292): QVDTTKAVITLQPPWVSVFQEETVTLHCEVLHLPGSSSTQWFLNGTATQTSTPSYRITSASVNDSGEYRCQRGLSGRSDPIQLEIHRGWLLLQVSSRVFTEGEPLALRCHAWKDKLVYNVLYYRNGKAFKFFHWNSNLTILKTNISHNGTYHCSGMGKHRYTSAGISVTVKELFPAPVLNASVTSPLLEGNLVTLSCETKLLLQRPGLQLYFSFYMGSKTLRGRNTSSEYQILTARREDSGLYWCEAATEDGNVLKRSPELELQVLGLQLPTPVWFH

B1: IL6R-BP198/IL6R-L (antibody, human IgG1, kappa, name in EU numbering)
heavy: QVQLQESGPGLVKPSETLSLTCAVSGHSISHDHAWSWVRQPPGEGLEWIGFISYSGITNYNPSLQGRVTISRDNSKNTLYLQMNSLRAEDTAVYYCARSLARTTAMDYWGEGTLVTVSSASTKGPSVFPLAPSSKSTSGGTAALGCLVKDYFPEPVTVSWNSGALTSGVHTFPAVLQSSGLYSLSSVVTVPSSSLGTQTYICNVNHKPSNTKVDKKVEPKSCDKTHTCPPCPAPDYLGGDSVFLFPPKPKDTLMISRTPEVTCVVVDVSDEDGEVKFNWYVDGVEVHNAKTKPREEQYNSTYRVVSVLTVLHQDWLNGKEYKCKVSNAALPKPIEKTISKAKGQPREPQVYTLPPSRDELTKNQVSLTCLVKGFYPSDIAVEWESNGQPENNYKTTPPVLDSDGSFFLYSKLTVDKSRWQQGNVFSCSVMHEALHNHYTQESLSLSP
light: not shown
notes: IgG1; alterations on IL6R-B3, EU numbering
As for B1, the Kd turned out to be 11 nM in assay [1] and 200 nM in [2]. Also, in assay [3], the “Relative FcgRIIb-binding Activity” value turned out to be 15.7 fold vs IL6R-B3/IL6R-L.

B2: GA1-IgG1 (antibody, V domains shown)
VH: EVQLVQSGAEVKKPGSSVKVSCKASGGTFSSYAISWVRQAPGQGLEWMGGIIPIFGTANYAQKFQGRVTITADESTSTAYMELSSLRSEDTAVYYCARVAPGNWGSPYFDYWGQGTLVTVSS
VL: DIQMTQSPSSLSASVGDRVTITCRASQSIEDDLAWYQQKPGKAPKLLIYEASSLQSGVPSRFSGSGSGTDFTLTISSLQPEDFATYYCQQRDSSPLTFGQGTKVEIKR
For B2, the Kd in assay [4] worked out at 150 nM; in assay [5] it was 190 nM; in assay [6], 100 nM; in assay [7] it was 140 nM; in assay [8], 150 nM; in assay [9], 220 nM.

B3: GA2-IgG1 (antibody, V domains shown)
VH: QVQLVQSGAEVKKPGSSVKVSCKASGGTFSSYAISWVRQAPGQGLEWMGGIIPIFGTANYAQKFQGRVTITADESTSTAYMELSSLRSEDTAVYYCARPRWETAISSDAFDIWGQGTMVTVSS
VL: DIQMTQSPSSLSASVGDRVTITCRASQSISDDLNWYQQKPGKAPKLLIYEASNLQSGVPSRFSGSGSGTDFTLTISSLQPEDFATYYCQQHSSSPLTFGQGTKVEIKR
notes: also called GA-IgG1
For B3, in the assay with human IgA (hIgA), the “Ca-dependent hIgA-binding activity (fold)” value is at least 100 times.

B4: GA2-IgG1 (antibody, V domains shown)
VH: QVQLVQSGAEVKKPGSSVKVSCKASGGTFSSYAISWVRQAPGQGLEWMGGIIPIFGTANYAQKFQGRVTITADESTSTAYMELSSLRSEDTAVYYCARPRWETAISSDAFDIWGQGTMVTVSS
VL: DIQMTQSPSSLSASVGDRVTITCRASQSISDDLNWYQQKPGKAPKLLIYEASNLQSGVPSRFSGSGSGTDFTLTISSLQPEDFATYYCQQHSSSPLTFGQGTKVEIKR
Regarding B4, the Kd was found to be 39 nM in [8], 5000 nM in assay [10], 6700 nM in assay [11] and 4000 nM in assay [12]. The kon in assay [13] worked out at 400000 M⁻¹ s⁻¹.

B5: VH3/L (WT)-mIgG1 (antibody)
heavy: QVQLQESGPGLVKPSETLSLTCAVSGHSISHDHAWSWVRQPPGEGLEWIGFISYSGITNYNPSLQGRVTISRDNSKNTLYLQMNSLRAEDTAVYYCARSLARTTAMDYWGEGTLVTVSSAKTTPPSVYPLAPGSAAQTNSMVTLGCLVKGYFPEPVTVTWNSGSLSSGVHTFPAVLQSDLYTLSSSVTVPSSTWPSETVTCNVAHPASSTKVDKKIVPRDCGCKPCICTVPEVSSVFIFPPKPKDVLTITLTPKVTCVVVDISKDDPEVQFSWFVDDVEVHTAQTQPREEQFNSTFRSVSELPIMHQDWLNGKEFKCRVNSAAFPAPIEKTISKTKGRPKAPQVYTIPPPKEQMAKDKVSLTCMITDFFPEDITVEWQWNGQPAENYKNTQPIMDTDGSYFVYSKLNVQKSNWEAGNTFTCSVLHEGLHNHHTEKSLSHSPGK
light: not shown
notes: mouse IgG1 Fc region
Consider B5, for which the binding result with mouse FcγRI and with mouse FcγRIV was “no binding” in each case.

B6: clone 278 (IgG1) (antibody, V domains shown)
VH: QSLEESGGRLVTPGTPLTLTCTASGFSLSSYHMSWVRQAPGKGLEWIGVINSAGNTYYASWAKGRFTVSKTSTTVDLNLTSLTTEDTATYFCARYVFSSGSHDIWGPGTLVTVSS
VL: AYDMTQTPASVEVAVGGTVTIKCQASQSIGSWLAWYQQKPGQPPKELIYGTSTLESGVPSRFIGSGSGTEFTLTISGVECADAATYYCQQGYSEDNIDNAFGGGTEVVVKR
notes: pH-dependent anti-human IgE antibody with human IgG1 constant region
Take B6: in the assay with human IgE [14], the “KD(pH 5.8, 1.2 mM Ca)/KD(pH 7.4, 1.2 mM Ca)” value stood at 842 ratio. For the same molecule, in the assay with human IgE [15], the “KD(pH 5.8, 3 µM Ca)/KD(pH 7.4, 1.2 mM Ca)” value came to 1640 ratio. In addition, the Kd was 3900 nM with human IgE [16], 2000 nM with human IgE [17] and 2.4 nM with human IgE [18]. Also, the off-rate constant (koff) with human IgE [16] was 0.24 s⁻¹; with human IgE [17] it was 0.23 s⁻¹; with human IgE [18], 0.0036 s⁻¹. For the same molecule, the kon with human IgE [16] was determined as 62000 M⁻¹ s⁻¹; with human IgE [17], 120000 M⁻¹ s⁻¹; in the assay with human IgE [18], 1.5e+06 M⁻¹ s⁻¹.
